Source: US8828940B2, “Method of treating an ischemia-reperfusion injury-related disorder by administering GPCR ligands” (priority 2006, dated 2014)
Like-named read-outs stand apart in the source and are kept apart here. No end group written: not given here.

Key:
[1] = biological target: T1, FPRL1 (Homo sapiens, UniProt P25090); assay: Calcium flux in FPRL1-transfected CHO-K1 cells; format: cell-based; design: expressed in transfected cells; host or cells: CHO-K1 (ATCC-CCL-61), transient co-transfection; settings: for ability to induce calcium flux (P33 family): 0.1, 1, 10, 100, 1000, 10000 nM; for calcium flux (P58 family): dose response, FPRL1 transfected CHO cells
T1 sequence (P25090 1-351): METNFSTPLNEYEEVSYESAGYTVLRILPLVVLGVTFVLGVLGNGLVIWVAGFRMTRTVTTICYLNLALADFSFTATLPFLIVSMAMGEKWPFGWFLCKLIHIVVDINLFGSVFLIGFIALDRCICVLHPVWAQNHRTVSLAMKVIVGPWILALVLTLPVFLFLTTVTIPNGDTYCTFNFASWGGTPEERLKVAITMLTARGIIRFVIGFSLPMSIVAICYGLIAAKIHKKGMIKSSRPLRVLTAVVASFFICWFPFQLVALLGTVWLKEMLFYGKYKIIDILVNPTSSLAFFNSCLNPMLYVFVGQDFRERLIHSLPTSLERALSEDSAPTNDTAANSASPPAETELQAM
Description: (§1) The assay was carried out in CHO cells were transiently transfected with the GPCR of choice, by utilizing the promiscuous Gα16 to divert signaling to the Gq pathway, thus enabling readout of GPCR activation by testing for Calcium flux as described by Liu et al 2003 (Biomol Screen 8, 39-49).
(§2) All the peptides thus obtained were tested for their ability to change calcium flux in CHO-K1 cells (ATCC-CCL-61) transiently co-transfected with an expression vector containing the GPCR of choice and expression vector containing the Gα16 encoding cDNA. Expression constructs containing cDNA clones for MrgX1, MrgX2, Mas or FPRL1 were commercially obtained in one of the following expression vectors: pcDNA3.1, pCMV6, or MO2.
(§3) Transient transfections were performed using CHO-K1 cells as host cells. Cells (12 million) were plated into T75 flasks on the day preceding transfection. Cells were transfected with the appropriate GPCR expression vector and with a vector expressing Gα16 using a lipid-based reagent, MTI, according to the manufacturer's recommendation. Cells were transfected for 5 hours, then re-plated into 96-well dishes (60,000 cells per well) and grown overnight.
On the day of the experiment, cells were loaded with Fluo-4-NW (Invitrogen) according to the manufacturer's recommendation. Plates were loaded into a FlexStation™ (Molecular Devices) plate reader and fluorescence was monitored. […] Each 96 well plate contained cells transfected with one GPCR expression vector and each of the examined peptides was tested in triplicate.
(§4) We defined a hit as a peptide which elicited a clear and distinct increase in intracellular calcium that is clearly visible and statistically significant upon examination of the calcium trace for at least two repeats. The criterion for statistical significance was a p-value lower than 0.001 in a t-test comparing the levels of calcium before and after peptide addition.
The ability of Peptides to change calcium flux was examined in CHO-K1 cells co-transfected with FPRL1 and Gα16.
The P33-derived peptides (see FIG. 1): P33_V (SEQ ID NO:7), P33 (SEQ ID NO:6)-mono, P33 (SEQ ID NO:6)-dimer, P33—5 (SEQ ID NO:27), P33—8 (SEQ ID NO:14), P33—9 (SEQ ID NO:15) and P33—10 (SEQ ID NO:16) were tested for their ability to activate FPRL1 using the calcium flux assay in FPRL1-transfected CHO cells. […] The lack of activity of these peptides might be due to reduced potency; insufficient sensitivity of the experimental system, alternative interaction of the receptor, or activation of other pathways, which are not related to calcium flux. Thus, this interaction should be further characterized.

[2] = system: Zymosan-induced murine dorsal air pouch model; format: in vivo, mice; settings: 4 h
Description: In order to analyze the ability of P58 to exert in vivo effects via the FPRL1 receptor, an acute experimental model of inflammation, the Zymosan-induced murine dorsal air pouch model, was used.
(§5) Male out-bred Swiss albino mice were purchased from Harlan, UK (T.O. strain) and maintained on a standard chow pellet diet with tap water ad libitum and a 12:00 h light /dark cycle. All animals were housed for 7 days prior to experimentation to allow body weight to reach ˜30 g on the day of the experiment.
Drugs were stored at −20° C. and defrosted on the day of the experiment. Peptide P58 was provided lyophilized; it was taken back to room temperature and dissolved with sterile PBS before use to make an initial 1 mg/ml solution. Peptide Ac2-26 (positive control) was also dissolved with sterile PBS before use to make an initial 1 mg/ml solution. Vehicle consisted of sterile pyrogen free PBS (Gibco, cat no. 14190-094). Once dissolved, P58 (SEQ ID NO:1) and Ac2-26 gave a clear solution. Drugs or vehicle were administered i.v. at a final volume of 200-μl, this volume containing the doses described below.
Lavage fluids were kept all the time on ice, then used to determine the number of migrated leukocytes, by taking an aliquot (100 μl) and diluting it 1:10 in Turk's solution (0.01% crystal violet in 3% acetic acid). The samples were then vortexed and 10 μl of the stained cell solution were placed in a Neubauer haematocymometer. Differential cell count was done using a light microscope (Olympus B061). In view of their chromatic characteristics and their nucleus and cytoplasm appearance, polymorphonuclear leukocytes (PMN; >95% neutrophils) could be easily identified.
For FACS analyses, an aliquot of lavage fluid was stained with the PE-conjugated anti-GR-1 monoclonal antibody (1:100 dilution, BD Biosciences; Cat 553128) to mark polymorphonuclear leukocytes. Staining was performed at 4° C.
Flow cytometry was performed using FACScan analyser (Becton Dickinson, Cowley, UK) with air-cooled 100 mW argon laser tuned to 488 nm connected to an Apple Macintosh G3 computer running Cell Quest II software. Forward and sidescatter characteristics were initially used to distinguish between the three distinct cell populations (lymphocytes, monocytes and granulocytes). Cells positive for GR-1 were detected in the FL2 channel (wavelength of 548 nm). Data are expressed as percentage of positive cells (in relation to the specific mAb). Determination of positive and negative populations was performed based on the control staining with irrelevant IgG isotype (rat IgG2b) labelled with PE. Once determined, quadrants were rigorously maintained for all analyses.
Data are shown for single mice, and also shown as mean±S.E. of (n) mice per group. Statistical differences were determined by ANOVA, plus Student Newman Keuls test. A P value <0.05 was taken as significant.
The anti-inflammatory activity of P58 shorter derivatives was tested in the same model of acute inflammation used in Example 6, the Zymosan-induced murine dorsal air pouch model.
as §5, with “˜25” for “˜30”
Drugs were stored at −20° C. and defrosted on the day of the experiment. Peptide P58 (SEQ ID NO:1) was provided lyophilized; it was taken back to room temperature and dissolved with sterile PBS before use to make an initial 1 mg/ml solution. Peptide P58-4 (SEQ ID NO:2) was provided lyophilized; it was taken back to room temperature and dissolved with sterile PBS before use to make an initial 327 μg/ml solution. Peptide P58-5 (SEQ ID NO:3) was provided lyophilized; it was taken back to room temperature and dissolved with sterile PBS before use to make an initial 476 μg/ml solution. […]

[3] = biological target: T2, Mas receptor (Homo sapiens, UniProt P04201); assay: Calcium flux in Mas-transfected CHO-K1 cells; format: cell-based; settings: for ability to induce calcium flux, relative potency (P61 family): dose response, Mas-transfected cells; for ability to induce calcium flux, relative potency (P33 family): 0.1, 1, 10, 100, 1000 and 10000 nM
T2 construct: expressed in transfected cells; host or cells: CHO-K1 (ATCC-CCL-61), transient co-transfection
T2 sequence (P04201 1-325): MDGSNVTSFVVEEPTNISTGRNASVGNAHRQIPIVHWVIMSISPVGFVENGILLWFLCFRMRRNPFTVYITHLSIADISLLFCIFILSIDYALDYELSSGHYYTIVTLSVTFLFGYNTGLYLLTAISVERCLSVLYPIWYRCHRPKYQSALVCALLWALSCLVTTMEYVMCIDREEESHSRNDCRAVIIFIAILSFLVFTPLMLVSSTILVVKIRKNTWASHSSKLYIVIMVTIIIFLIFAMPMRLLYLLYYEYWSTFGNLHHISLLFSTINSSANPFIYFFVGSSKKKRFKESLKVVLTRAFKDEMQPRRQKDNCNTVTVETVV
Description: as §1, §2, §3
On the day of the experiment, cells were loaded with Fluo-4-NW (Invitrogen) according to the manufacturer's recommendation. Plates were loaded into a FlexStation™ (Molecular Devices) plate reader and fluorescence was monitored. Seventeen seconds following initiation of reading, cells were stimulated with the indicated agonist/compound at final concentration of 1 μM. Each 96 well plate contained cells transfected with one GPCR expression vector and each of the examined peptides was tested in triplicate.
as §4
Based on dose response experiments, EC50 best fit values were calculated by non-linear regression of sigmoidal dose-response curves, using Prism version 4 (GraphPad Software Inc., San Diego, Calif.). The formulae for the sigmoidal dose-response curves was defined as Y=Bottom+(Top−Bottom)/(1+10^(Log EC50−X)*HillSlope))
The ability of Peptides to change calcium flux was examined in CHO-K1 cells co-transfected with Mas receptor and Gα16.
The P33 monomer and dimer, as well as other P33 derivative peptides were compared for their ability to induce calcium flux in the Mas-transfected cells at 0.1, 1, 10, 100, 1000 and 10000 nM.

Substance	ability to induce calcium flux (P33 family) [1]	calcium flux (P58 family) [1]	ability to induce calcium flux, relative potency (P33 family) [3]	also measured
AVLFPAAHRP (listed as Homo sapiens) [P33—5]	failed to induce calcium flux			
Ac2-26: a peptide derived from the N-terminus of AnnexinI, known FPRL1 agonist, positive control (AMVSEFLKQAWFIENEEQEYVQTVK) [reference compound]				inhibition of leukocyte accumulation triggered by zymosan A ([2]; Example 6, 200 μg/mouse i.v.): inhibited significantly; inhibition of neutrophil (GR-1+) accumulation triggered by zymosan A ([2]; Example 6, 200 μg/mouse i.v., FACS): 52%
Angiotensin 1-7 [Ang-(1-7), reference compound]				Ca response ([3]; Mas dose response experiment, data not shown): did not induce Ca response
FAFLGYSIYLNRKRRGDPAF (listed as Homo sapiens) [P61—11S]				ability to induce calcium flux, relative potency (P61 family) [3]: as potent as P61_S
FTSWFM-amide (FTSWFM-NH2; listed as Homo sapiens) [P58—4]		elicited calcium flux		inhibition of leukocyte accumulation triggered by zymosan A ([2]; Example 7, 20 nmole/mouse i.v.): 35%; inhibition of leukocyte accumulation triggered by zymosan A ([2]; Example 7, 80 nmole/mouse i.v.): 47%; inhibition of zymosan-induced neutrophil (GR-1+) accumulation ([2]; Example 7, 80 nmole/mouse i.v., FACS): 49%
HRWSRAVLFPAAHRP (listed as Homo sapiens) [P33—9]	failed to induce calcium flux		induced calcium flux, albeit at a somewhat lower degree compared to P33_V	
IYLNRKRRGDPAFKRRLRD (listed as Homo sapiens) [P61—4]				ability to induce calcium flux, relative potency (P61 family) [3]: somewhat weaker
RWSRAVLFPAAHRP (listed as Homo sapiens) [P33—8]	failed to induce calcium flux		induced calcium flux, albeit at a somewhat lower degree compared to P33_V	
SMCHRWSRAVLFPAAHRP [P33_dimer] (also: disulfide dimer via cysteine; listed as Homo sapiens) [Peptide P33_dimer]			superior to the monomeric peptides	
SMCHRWSRAVLFPAAHRP [P33_mono] (listed as Homo sapiens) [Peptide P33_mono]	similarly potent		equally potent	
WSRAVLFPAAHRP (listed as Homo sapiens) [P33—10]	failed to induce calcium flux		induced calcium flux, albeit at a somewhat lower degree compared to P33_V	

More lines, main results first:

ability to induce calcium flux (P33 family) [1]	calcium flux (P58 family) [1]	Substance	ability to induce calcium flux, relative potency (P33 family) [3]	also measured
	elicited calcium flux	LQKFTSWFM-amide (LQKFTSWFM-NH2; listed as Homo sapiens) [P58—5]		inhibition of leukocyte accumulation triggered by zymosan A ([2]; Example 7, 20 nmole/mouse i.v.): did not inhibit leukocyte migration; inhibition of zymosan-induced neutrophil (GR-1+) accumulation ([2]; Example 7, 20 nmole/mouse i.v., FACS): weak effect; inhibition of leukocyte accumulation triggered by zymosan A ([2]; Example 7, 80 nmole/mouse i.v.): 29%
	did not induce calcium flux	TIPMFVPESTS (listed as Homo sapiens) [P58—6]		
	did not induce calcium flux	TIPMFVPESTSKLQ (listed as Homo sapiens) [P58—7]		
	did not induce calcium flux	TIPMFVPESTSTLQ (listed as Homo sapiens) [P58—12]		
	elicited calcium flux	TIPMFVPESTSTLQKFTSWFM-amide (TIPMFVPESTSTLQKFTSWFM-NH2; listed as Homo sapiens) [P58—10]		
